Results from patent US20240279341A1 (Alector, published 2024).

T1: recombinant human MerTK extracellular domain (human, UniProt Q12866 21-505)
T1 construct: also called huMerTK; not shown: PolyHis tag or TEVS/Thrombin/murine IgG2a Fc tag (a DDDDK-tagged commercial protein is also mentioned); which form was t
T1 sequence: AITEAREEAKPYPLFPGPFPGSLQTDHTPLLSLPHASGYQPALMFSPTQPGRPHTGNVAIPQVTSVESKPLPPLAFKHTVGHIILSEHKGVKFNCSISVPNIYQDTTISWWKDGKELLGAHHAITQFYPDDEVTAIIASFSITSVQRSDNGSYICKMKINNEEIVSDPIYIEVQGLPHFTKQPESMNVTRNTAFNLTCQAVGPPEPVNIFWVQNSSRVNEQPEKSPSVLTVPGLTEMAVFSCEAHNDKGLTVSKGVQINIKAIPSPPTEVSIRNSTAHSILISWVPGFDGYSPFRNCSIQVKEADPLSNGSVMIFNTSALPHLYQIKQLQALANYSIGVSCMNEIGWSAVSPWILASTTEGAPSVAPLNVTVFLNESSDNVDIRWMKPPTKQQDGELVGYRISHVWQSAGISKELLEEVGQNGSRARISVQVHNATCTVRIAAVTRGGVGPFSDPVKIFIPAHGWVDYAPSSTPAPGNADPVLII

T2: human MerTK overexpressed on CHO cells (human, UniProt Q12866 21-999)
T2 construct: also called CHO-huMerTK OE; CHO-human MerTK OE cells
T2 sequence: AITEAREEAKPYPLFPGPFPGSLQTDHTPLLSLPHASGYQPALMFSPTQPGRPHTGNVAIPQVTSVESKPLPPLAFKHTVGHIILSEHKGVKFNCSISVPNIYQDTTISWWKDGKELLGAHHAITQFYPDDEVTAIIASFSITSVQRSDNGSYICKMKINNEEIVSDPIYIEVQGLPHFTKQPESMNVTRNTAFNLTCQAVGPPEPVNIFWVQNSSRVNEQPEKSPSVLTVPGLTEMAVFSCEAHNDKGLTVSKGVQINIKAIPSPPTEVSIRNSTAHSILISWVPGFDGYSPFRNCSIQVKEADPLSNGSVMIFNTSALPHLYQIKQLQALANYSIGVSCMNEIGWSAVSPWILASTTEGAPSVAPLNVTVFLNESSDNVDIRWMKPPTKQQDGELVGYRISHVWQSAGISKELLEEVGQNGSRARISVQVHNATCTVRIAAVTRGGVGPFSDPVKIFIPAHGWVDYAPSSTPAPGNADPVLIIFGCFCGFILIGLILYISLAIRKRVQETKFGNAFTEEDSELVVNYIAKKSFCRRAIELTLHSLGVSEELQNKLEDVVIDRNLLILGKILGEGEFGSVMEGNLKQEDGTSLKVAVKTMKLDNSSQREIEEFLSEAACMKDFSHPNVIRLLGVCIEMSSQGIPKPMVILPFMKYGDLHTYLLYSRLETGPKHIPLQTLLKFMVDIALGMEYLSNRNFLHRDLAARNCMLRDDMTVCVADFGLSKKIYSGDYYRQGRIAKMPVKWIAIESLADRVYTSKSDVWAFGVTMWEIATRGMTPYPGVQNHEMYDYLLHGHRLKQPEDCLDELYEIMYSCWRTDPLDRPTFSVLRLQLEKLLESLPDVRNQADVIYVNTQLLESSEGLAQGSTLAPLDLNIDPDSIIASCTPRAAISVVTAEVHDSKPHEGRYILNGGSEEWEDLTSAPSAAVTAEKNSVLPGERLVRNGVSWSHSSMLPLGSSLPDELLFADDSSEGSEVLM

T3: human MerTK on M2c-differentiated human macrophages (human, UniProt Q12866 21-999)
T3 sequence: T2 sequence

B1: monovalent anti-MerTK antibody MTK-33.11 (antibody, V domains shown)
VH: QVQLVQSGAEVKKPGASVKVSCKASGYTFTSYWMHWVRQAPGQGLEWIGVIDPSDNYINYNQKFQGRVTMTRDTSTSTVYMELSSLRSEDTAVYYCAREAWTRGYFDYWGQGTLVTVSS
VL: DIQMTQSPSSLSASVGDRVTITCQASRSVRNTVAWYQQKPGKAPKLLIYYASNRYTGVPSRFSGSGSGTDFTFTISSLQPEDIATYYCQQDYRSPFTFGQGTKLEIK
B2: bispecific anti-MerTK MTK-33.11:anti-PDL1 antibody (bispecific antibody, V domains shown)
VH 1: B1 VH
VL 1: B1 VL
VH 2: not shown
VL 2: not shown
B3: bivalent anti-MerTK antibody MTK-33.11 (full IgG) (antibody, V domains shown)
VH: B1 VH
VL: DIQMTQSPSSLSASVGDRVTITCQASRSVRNTVAWYQQKPGKAPKLLIYYASNRYTGVPSRFSGSGSGTDFTFTISSLQPEDIATYYCQQDYRSPFTFGQGTKLEIKR
B4: monovalent anti-MerTK antibody MTK-16.2 (antibody, V domains shown)
VH: QVQLVQSGSELKKPGASVKVSCKASGYTFTNHGMNWVRQAPGQGLEWMGWINTYTGEPTYADDFKGRFVFSLDTSVSTAYLQISSLKAEDTAVYYCARKGVTAARYFDYWGQGTLVTVSS
VL: DIQMTQSPSSLSASVGDRVTITCRASQNVRTAVAWYQQKPGKAPKRLIYLASNRHTGVPSRFSGSGSGTEFTLTISNLQPEDFATYYCLQHWNYPLTFGGGTKLEIK
B5: bivalent anti-MerTK antibody MTK-16.2 (full IgG) (antibody, V domains shown)
VH: B4 VH
VL: DIQMTQSPSSLSASVGDRVTITCRASQNVRTAVAWYQQKPGKAPKRLIYLASNRHTGVPSRFSGSGSGTEFTLTISNLQPEDFATYYCLQHWNYPLTFGGGTKLEIKR
B6: bispecific anti-MerTK MTK-16.2:anti-PDL1 antibody (bispecific antibody, V domains shown)
VH 1: B4 VH
VL 1: B4 VL
VH 2: not shown
VL 2: not shown

What was measured:
[1] = target: T1, recombinant human MerTK extracellular …; assay: SPR (Carterra LSA), antibody immobilized, MerTK ECD as analyte; estimate, fits not ideal for a 1:1 model
Procedure: Binding kinetics of bispecific anti-MerTK:anti-PDL1 antibodies of the present disclosure to human, cyno, and murine MerTK were evaluated using a Carterra LSA instrument. […] A HC30 sensor chip (Carterra) was activated using the single channel flow cell with a 7-minute injection of a 1:1:1 mixture of 100 mM MES pH 5.5, 100 mM sulfo-NHS, 400 mM EDC (all reconstituted in MES pH 5.5; 100 μl of each mixed in vial immediately before running assay). After switching to the multi-channel array flow cell, the antibodies were injected over the activated chip in a 96-spot array for 15 minutes. A duplicate injection of the antibodies on a second block of the chip was spotted as before. The remaining unconjugated active groups on the chip were then blocked by injecting 1M Ethanolamine pH 8.5 (Carterra) for 7 minutes using the single channel flow cell.
After priming with running buffer (HBS-TE, Carterra) with 0.5 mg/ml BSA (Sigma), the immobilized anti-MerTK antibodies were tested for their ability to bind to several forms of recombinant MerTK extracellular domain, including that of human, cynomolgus, and mouse orthologs as described above. Estimates of affinity were generated by injecting each analyte over the entire antibody array using the single channel flow cell. […] Dissociation was followed for 300 seconds before regenerating after each injection with 2×30 seconds of 10 mM Glycine pH2.5. Three buffer blanks were run between each series (one species per series). After all concentrations of all three species of MerTK were injected, a duplicate set of injections was performed, so that each concentration for all three species was injected in widely spaced duplicates. Data were processed and analyzed using NextGenKIT high-throughput kinetics analysis software (Carterra).

[2] = target: T2, human MerTK overexpressed on CHO cells; assay: flow cytometry on CHO-huMerTK OE cells, Dylight650-conjugated antibody; average FACS Kd from Prism fit of MFI
Source text: Human macrophages were differentiated from human monocytes for 7 days in the presence of human M-CSF, resulting in M2c-differentiated human macrophages. After 7 days, the differentiated human macrophages were harvested (by scraping), resuspended in PBS, and plated on 96-well plates for use. CHO cells overexpressing human MerTK (CHO-huMerTK OE), CHO cells overexpressing human PDL1 (CHO-huPDL1 OE), and M2c-differentiated human macrophages were stained with Dylight650-conjugated bispecific anti-MerTK:anti-PDL1 antibodies, or bivalent anti-MerTK antibodies for 30 min on ice. A range of antibody concentrations were used in these studies to obtain binding curves. All antibodies tested in these studies were IgG1 having Fc regions comprising LALAPS mutations. Cells were fixed and then acquired on a BD FACS Canto II cytometer. The mean fluorescence intensity (MFI) was calculated using FlowJo software and Kd value was calculated using Prism software.

[3] = target: T3, human MerTK on M2c-differentiated human …; assay: cell-based or functional assay

Kd [1]	Kd [2]	Average IC50 (nM) in the presence of huGas6 (huGas6-mediated pAKT reducing activity) [3]	Binder
2 nM	4.97 nM	17.9 nM	B1
2 nM	3.25 nM	9.03 nM	B2
2 nM	0.439 nM	1.25 nM	B3
50 nM	40.5 nM	15.3 nM	B4
50 nM	42.5 nM	3.22 nM	B5
30 nM	48.3 nM	12.3 nM	B6
